The values that follow come from article PMC11297306 (Nature Communications, 2024).

The target of this test is EEEV virus-like particles (strain PE6) (eastern equine encephalitis virus, strain PE6). In words: BLI.

Substance “VLDLRLA1-Fc fusion protein (from UniProt P98155-1 31-69)” registered a Kd of 15.5 µM.
As for “VLDLRLBD-Fc fusion protein (from UniProt P98155-1 31-355)”, the figure is 0.0021 µM.

The Kd is the equilibrium constant for the complex coming apart. A lower Kd goes with tighter binding.
